From publication PMC9659335, “An unexpected role for leucyl aminopeptidase in UV tolerance revealed by a genome-wide fitness assessment in a model cyanobacterium” (Proceedings of the National Academy of Sciences of the …, 2022)

How the values were obtained:
purified protein [1] = substrate: CC(C)C[C@H](N)C(=O)Nc1ccc([N+](=O)[O-])cc1; assay: purified protein; format: biochemical, Synechococcus elongatus; conditions: pH 7.5, 50 mM Tris-HCl, 0.2 mM MnCl2, 37 °C, 5 µg/mL enzyme
purified protein [2] = substrate: N[C@@H](CS)C(=O)NCC(=O)O; assay: purified protein; format: biochemical, Synechococcus elongatus; conditions: pH 7.5, 50 mM Tris-HCl, 0.2 mM MnCl2, 37 °C, 5 µg/mL enzyme

B1: SynPCC7942_1190 (LAP, leucyl aminopeptidase) (Synechococcus elongatus PCC 7942 = FACHB-805) (protein)
chain: MTFQAIATHPQDWTGDTLALGLTTAAIGETLSSELQKLDQQWNGVLQELISDSEFKAKLAETTTTRIGGSIRKLILVGLGESPTTEDYRRAAAAVAKQARSFKSQTLAIAFPPSDDPAAIASAIVEGISLALYKDQRFKSEPDTASGPSSIELLGLAGQEAAIARAEQVVAGVELARQLVAAPANVVTPVTMADTAQELAAELGLELEILEADECEKRGMGAFLGVAKASDLPPKFIHLTYRPESTPRRKLAIVGKGLTFDSGGYNIKGAGSGIEMMKTDMGGAAATLGAAKAIGLIKPDVEVHFISAVTENMISGRGMHPGDILTASNGKTIEVNNTDAEGRLTLADALVFADGLGVDAIVDLATLTGACIIALGDDIAGLWSPSDDLAEQLLQAGKAAGEKLWRLPLEEPYLDGLKSPVADYKNTGPRAGGSITAALFLKQFVKHPVWAHLDVAGPVWSDKEKHYNPAGATGYGVRTLVNWVLS
notes: full-length gene in pET-28b(+) (pAM5836), Strep-tag (text: N terminus)
For B1, the Km (purified protein [1]) was 7.44 mM and the Km (purified protein [2]) was 1.21 mM.
